B1: Nibrin (Homo sapiens), O60934 (parent)
chain: MWKLLPAAGPAGGEPYRLLTGVEYVVGRKNCAILIENDQSISRNHAVLTANFSVTNLSQTDEIPVLTLKDNSKYGTFVNEEKMQNGFSRTLKSGDGITFGVFGSKFRIEYEPLVACSSCLDVSGKTALNQAILQLGGFTVNNWTEECTHLVMVSVKVTIKTICALICGRPIVKPEYFTEFLKAVESKKQPPQIESFYPPLDEPSIGSKNVDLSGRQERKQIFKGKTFIFLNAKQHKKLSSAVVFGGGEARLITEENEEEHNFFLAPGTCVVDTGITNSQTLIPDCQKKWIQSIMDMLQRQGLRPIPEAEIGLAVIFMTTKNYCDPQGHPSTGLKTTTPGPSLSQGVSVDEKLMPSAPVNTTTYVADTESEQADTWDLSERPKEIKVSKMEQKFRMLSQDAPTVKESCKTSSNNNSMVSNTLAKMRIPNYQLSPTKLPSINKSKDRASQQQQTNSIRNYFQPSTKKRERDEENQEMSSCKSARIETSCSLLEQTQPATPSLWKNKEQHLSENEPVDTNSDNNLFTDTDLKSIVKNSASKSHAAEKLRSNKKREMDDVAIEDEVLEQLFKDTKPELEIDVKVQKQEEDVNVRKRPRMDIETNDTFSDEAVPESSKISQENEIGKKRELKEDSLWSAKEISNNDKLQDDSEMLPKKLLLTEFRSLVIKNSTSRNPSGINDDYGQLKNFKKFKKVTYPGAGKLPHIIGGSDLIAHHARKNTELEEWLRQEMEVQNQHAKEESLADDLFRYNPYLKRRR
partner: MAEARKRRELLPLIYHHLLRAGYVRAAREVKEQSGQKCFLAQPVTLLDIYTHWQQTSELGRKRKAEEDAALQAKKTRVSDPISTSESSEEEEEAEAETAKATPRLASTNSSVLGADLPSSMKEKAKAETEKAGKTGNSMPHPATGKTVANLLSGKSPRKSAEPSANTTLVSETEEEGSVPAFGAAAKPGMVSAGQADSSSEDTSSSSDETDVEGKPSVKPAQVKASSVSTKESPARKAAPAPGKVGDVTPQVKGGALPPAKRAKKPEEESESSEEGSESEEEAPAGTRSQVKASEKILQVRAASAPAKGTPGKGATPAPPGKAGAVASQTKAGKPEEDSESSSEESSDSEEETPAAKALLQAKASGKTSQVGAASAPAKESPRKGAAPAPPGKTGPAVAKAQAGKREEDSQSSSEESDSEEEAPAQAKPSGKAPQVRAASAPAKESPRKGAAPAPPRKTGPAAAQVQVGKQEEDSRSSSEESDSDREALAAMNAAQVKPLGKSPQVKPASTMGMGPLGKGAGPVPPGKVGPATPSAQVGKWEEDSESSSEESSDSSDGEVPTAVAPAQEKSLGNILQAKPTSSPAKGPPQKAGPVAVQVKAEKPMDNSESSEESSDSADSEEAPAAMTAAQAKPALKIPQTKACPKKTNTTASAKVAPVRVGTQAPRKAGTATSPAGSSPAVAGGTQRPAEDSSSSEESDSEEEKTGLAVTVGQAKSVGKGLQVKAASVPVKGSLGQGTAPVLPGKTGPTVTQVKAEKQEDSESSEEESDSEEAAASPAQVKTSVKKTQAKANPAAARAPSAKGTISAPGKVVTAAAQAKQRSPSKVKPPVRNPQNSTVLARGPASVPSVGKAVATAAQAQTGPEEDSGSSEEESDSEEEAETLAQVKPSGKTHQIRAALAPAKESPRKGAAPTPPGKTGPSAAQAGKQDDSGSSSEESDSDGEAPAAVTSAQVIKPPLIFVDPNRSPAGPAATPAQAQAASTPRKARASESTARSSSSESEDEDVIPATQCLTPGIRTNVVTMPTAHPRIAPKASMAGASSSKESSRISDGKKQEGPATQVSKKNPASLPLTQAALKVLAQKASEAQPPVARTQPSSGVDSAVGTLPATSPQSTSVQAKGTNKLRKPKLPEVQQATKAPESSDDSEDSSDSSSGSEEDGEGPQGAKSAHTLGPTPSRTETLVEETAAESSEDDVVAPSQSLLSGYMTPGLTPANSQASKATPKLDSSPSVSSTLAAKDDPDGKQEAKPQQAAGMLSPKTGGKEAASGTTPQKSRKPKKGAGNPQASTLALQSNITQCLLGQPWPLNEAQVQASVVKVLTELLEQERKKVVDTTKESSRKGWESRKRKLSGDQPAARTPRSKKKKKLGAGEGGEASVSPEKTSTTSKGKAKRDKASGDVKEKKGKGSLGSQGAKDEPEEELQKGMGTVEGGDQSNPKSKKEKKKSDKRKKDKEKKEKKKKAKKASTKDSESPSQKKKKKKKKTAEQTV
B2: Treacle protein (Homo sapiens), Q13428 (parent)
chain: B1 partner

Variants of: B1
Conditions: with tcof_human TCOF1, Q13428

Row | Variant | effect of a mutation on the interaction
1 | R28A;K160M | disrupting interaction strength

Variants of: B1
Conditions: with tcof_human TCOF1, Q13428
Remark: another data set of the same source

Row | Variant | effect of a mutation on the interaction
2 | R28A | disrupting interaction strength

Variants of: B2
Conditions: with nbn_human NBN

Row | Variant | effect of a mutation on the interaction
3 | T210A | disrupting interaction strength

— IntAct's records for PubMed 25064736
